Where a chain is given by its changes, count along the chain named. Square brackets hold non-standard residues; d marks the D form. pT = C[C@@H](OP(=O)(O)O)[C@H](N)C(=O)O
Experiments:
[1] = tested on: LBD WT; conditions: split TEV assay, Hep3B
[2] = target: T1, AR WT (Homo sapiens, UniProt P10275); experiment: Whole-cell competition ligand binding assay in COS-7 cells; conditions: mean ± SE
T1 construct: Cells expressing a flag-tagged AR full-length were used as control; expressed in transfected cells
T1 sequence (P10275 1-920): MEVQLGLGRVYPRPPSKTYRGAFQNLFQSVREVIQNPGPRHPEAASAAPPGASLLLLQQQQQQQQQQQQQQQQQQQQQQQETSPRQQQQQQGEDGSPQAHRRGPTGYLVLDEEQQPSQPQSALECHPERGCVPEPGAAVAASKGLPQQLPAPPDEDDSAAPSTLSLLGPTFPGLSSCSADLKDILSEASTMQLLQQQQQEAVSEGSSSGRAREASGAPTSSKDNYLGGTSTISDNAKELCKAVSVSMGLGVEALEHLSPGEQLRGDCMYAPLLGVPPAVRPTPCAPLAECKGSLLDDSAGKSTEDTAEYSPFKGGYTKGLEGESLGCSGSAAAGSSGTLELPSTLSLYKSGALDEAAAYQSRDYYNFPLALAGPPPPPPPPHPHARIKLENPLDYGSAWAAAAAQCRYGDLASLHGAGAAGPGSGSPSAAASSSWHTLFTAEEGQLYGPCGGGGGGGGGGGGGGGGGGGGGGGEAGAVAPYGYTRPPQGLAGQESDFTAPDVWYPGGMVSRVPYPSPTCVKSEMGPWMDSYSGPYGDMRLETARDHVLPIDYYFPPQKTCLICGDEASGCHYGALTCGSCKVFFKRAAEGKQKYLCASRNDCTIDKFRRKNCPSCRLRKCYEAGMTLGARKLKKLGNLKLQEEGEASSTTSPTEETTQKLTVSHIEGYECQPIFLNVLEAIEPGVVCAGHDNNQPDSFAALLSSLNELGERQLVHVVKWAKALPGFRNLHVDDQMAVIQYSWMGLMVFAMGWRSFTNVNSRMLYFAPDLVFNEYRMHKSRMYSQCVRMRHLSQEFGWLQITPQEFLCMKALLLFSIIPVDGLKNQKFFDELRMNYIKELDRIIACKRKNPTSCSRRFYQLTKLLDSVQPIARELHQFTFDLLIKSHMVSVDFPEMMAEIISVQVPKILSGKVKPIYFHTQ
Procedure: (§1) After addition of Ultima Gold XR (Perkin Elmer, Waltham, MA, USA), cell lysates were counted for ^3H-signal. Data were normalized for the average cpm of all data points per independent experiment. Mean and SEM of the specific binding (total binding—non-specific binding) is given (n ≥ 3). Via non-linear regression analysis using the One-site binding-equation of GraphPad Prism 9 (version 9.3.1), the KD and Bmax were calculated. Ratio-paired T-test with * = p ≤ 0.05, ** = p < 0.01.

[3] = target: T2, AR T850D (Homo sapiens, UniProt P10275, T851D); experiment: as above
T2 construct: Cells expressing a flag-tagged AR full-length were used as control; expressed in transfected cells
T2 sequence (P10275 1-920 T851D): T1 sequence (P10275 1-920) with T851D
Procedure: as §1

[4] = target: T3, AR T850A (Homo sapiens, UniProt P10275, T851A); experiment: as above; conditions: mean ± SE
T3 construct: Cells expressing a flag-tagged AR full-length were used as control; expressed in transfected cells
T3 sequence (P10275 1-920 T851A): T1 sequence (P10275 1-920) with T851A
Procedure: as §1

[5] = Circular dichroism spectroscopy and thermal denaturation of H10 peptides; format: physicochemical; conditions: for melting temperature higher than the WT peptide: 25 µM peptide in 20% TFE-TRIS buffer pH 7.5, at all wave lengths (208, 211, 215, 222 nm); for reduction (vs. WT peptide) of the CD minimum at 208 nm / reduction (vs. WT peptide) of the CD minimum at 222 nm: 50 µM peptide in 20% TFE-TRIS buffer pH 7.5, 4 °C
Procedure: Peptides (AR WT 845–868: Acetyl-[…]-amide) with T850D or with phosphorylated T850 (Genscript, Piscataway, NJ, USA) were compared to WT peptide through their CD spectra. […] The Mean Residue-Molar Ellipticity (MR-ME) was calculated as MR-ME = MRW × θ/(10 × d × c) with MRW (Mean Residue Weight) = peptide weight/(n − 1) and n = […]; with θ as the observed ellipticity in millidegrees; […]. The unfolded fraction (Funfolded) of the peptide was calculated from the Ellipticity data using equation: Funfolded = (θt − θfolded)/(θunfolded − θfolded) with θt as the Ellipticity at each temperature, θfolded as the Elllipticity of the peptide in folded state and θunfolded as the Ellipticity of the peptide in unfolded state. Melting temperature (Tm) of AR 845–868 peptides were calculated through nonlinear regression analysis of the Sigmoidal dose response curves (variable slope) using GraphPad Prism 9, version 9.3.1. The temperature corresponding to an unfolded fraction of 0.5 is the Tm. Mean melting temperatures with 95% CI of 2 independent experiments are given. Helix content was calculated from the molar ellipticity [θ] at 222 nm using the following equation, % helix = 100 ([θ]222/(−39,500(1 − 2.57/n))), where n is the number of total peptide bonds and [θ]222 has been corrected for background.

Compound	melting temperature higher than the WT peptide [5]	reduction (vs. WT peptide) of the CD minimum at 208 nm [5] [%]	reduction (vs. WT peptide) of the CD minimum at 222 nm [5] [%]	other results
C[C@]12CCC(=O)C[C@@H]1CC[C@@H]1[C@@H]2CC[C@]2(C)[C@@H](O)CC[C@@H]12 [DHT, dihydrotestosterone]				EC50 of WT LBD compared to EC50 of T850D LBD [1]: 10 fold
C[C@@H]1CC2=CC(=O)CC[C@@H]2[C@H]2CC[C@@]3(C)[C@@H](CC[C@]3(C)O)[C@@H]21 [^3H-Mib]				Bmax [2]: 5182 (±602) cpm; increase of maximal binding, AR T850D vs. AR WT [3]: approximately 50%; Bmax ([3]; mean ± SE): 7902 (±773) ** cpm; Bmax [4]: 5514 (±561) cpm
T850D peptide: H10 peptide AR 845–868 (WT: Acetyl-KRKNPTSCSRRFYQLTKLLDSVQP-amide) with T850D (Ac-KRKNPDSCSRRFYQLTKLLDSVQP-NH2)	approximately 13 °C	30	43	
T850Ph peptide: H10 peptide AR 845–868 (WT: Acetyl-KRKNPTSCSRRFYQLTKLLDSVQP-amide) with phosphorylated T850 (Ac-KRKNP[pT]SCSRRFYQLTKLLDSVQP-NH2; SMILES CC(=O)N[C@@H](CCCCN)C(=O)N[C@@H](CCCNC(=N)N)C(=O)N[C@@H](CCCCN)C(=O)N[C@@H](CC(N)=O)C(=O)N1CCC[C@H]1C(=O)N[C@H](C(=O)N[C@@H](CO)C(=O)N[C@@H](CS)C(=O)N[C@@H](CO)C(=O)N[C@@H](CCCNC(=N)N)C(=O)N[C@@H](CCCNC(=N)N)C(=O)N[C@@H](Cc1ccccc1)C(=O)N[C@@H](Cc1ccc(O)cc1)C(=O)N[C@@H](CCC(N)=O)C(=O)N[C@@H](CC(C)C)C(=O)N[C@H](C(=O)N[C@@H](CCCCN)C(=O)N[C@@H](CC(C)C)C(=O)N[C@@H](CC(C)C)C(=O)N[C@@H](CC(=O)O)C(=O)N[C@@H](CO)C(=O)N[C@H](C(=O)N[C@@H](CCC(N)=O)C(=O)N1CCC[C@H]1C(N)=O)C(C)C)[C@@H](C)O)[C@@H](C)OP(=O)(O)O)	~27 °C	38	51	

From publication PMC8836279, “The T850D Phosphomimetic Mutation in the Androgen Receptor Ligand Binding Domain Enhances Recruitment at Activation Function 2” (International Journal of Molecular Sciences, 2022)
